Patent US20210347913A1 (published 2021)
Numbering of substitutions follows the chain as printed.

T1: PTK7 on PTK7 positive cell line SaOS-2 (osteosarcoma) (UniProt Q13308 31-1070)
T1 chain: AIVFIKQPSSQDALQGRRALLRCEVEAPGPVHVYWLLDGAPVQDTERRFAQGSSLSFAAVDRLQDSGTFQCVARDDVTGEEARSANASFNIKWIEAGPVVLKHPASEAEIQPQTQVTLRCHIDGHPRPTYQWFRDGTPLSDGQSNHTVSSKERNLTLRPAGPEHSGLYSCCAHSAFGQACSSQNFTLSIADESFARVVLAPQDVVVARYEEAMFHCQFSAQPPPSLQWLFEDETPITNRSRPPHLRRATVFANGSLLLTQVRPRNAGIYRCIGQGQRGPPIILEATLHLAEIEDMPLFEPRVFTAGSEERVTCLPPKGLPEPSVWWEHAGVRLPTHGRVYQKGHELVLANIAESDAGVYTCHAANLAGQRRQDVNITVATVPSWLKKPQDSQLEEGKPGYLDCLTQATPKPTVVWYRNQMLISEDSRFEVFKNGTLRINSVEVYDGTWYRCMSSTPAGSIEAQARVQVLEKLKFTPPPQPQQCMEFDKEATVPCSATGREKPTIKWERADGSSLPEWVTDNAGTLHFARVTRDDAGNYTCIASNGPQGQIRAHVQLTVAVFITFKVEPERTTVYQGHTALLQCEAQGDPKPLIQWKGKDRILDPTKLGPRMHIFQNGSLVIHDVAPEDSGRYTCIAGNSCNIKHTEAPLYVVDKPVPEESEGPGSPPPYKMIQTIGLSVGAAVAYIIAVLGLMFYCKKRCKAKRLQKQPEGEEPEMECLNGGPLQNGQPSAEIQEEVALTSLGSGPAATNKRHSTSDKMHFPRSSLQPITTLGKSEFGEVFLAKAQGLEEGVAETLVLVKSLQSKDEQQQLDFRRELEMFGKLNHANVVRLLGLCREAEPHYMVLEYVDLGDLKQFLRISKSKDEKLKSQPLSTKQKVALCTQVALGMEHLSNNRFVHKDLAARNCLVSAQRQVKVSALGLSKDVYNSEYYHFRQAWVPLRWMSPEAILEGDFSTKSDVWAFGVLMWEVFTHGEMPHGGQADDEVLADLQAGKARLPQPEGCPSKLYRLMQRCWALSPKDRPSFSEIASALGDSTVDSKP

B1: 181 M10 (antibody)
chain: QGCYIGLRMVPCFHMGSSGGSGGSGGSGGGPLGLAGGSSGQVQLVESGGGVVQPGRSLRLSCAASGFTFSSYGMHWVRQAPGKGLEWVAVIWDDGSNKYYVDSVKGRFTISRDNSKNTLYLQMNSLRAEDTAVYYCARDDYYGSGSFNSYYGTDVWGQGTTVTVSSGGGGSGGGGSGGGGSEIVLTQSPATLSLSPGERATLSCRASQSVSIYLAWYQQKPGQAPRLLIYDASNRATGIPARFSGSGSGTDFTLTISSLEPEDFAVYYCQQRSNWPPFTFGPGTKVDIKSAAAFVPVFLPAKPTTTPAPRPPTPAPTIASQPLSLRPEACRPAAGGAVHTRGLDFACDIYIWAPLAGTCGVLLLSLVITLYCNHRNRSKRSRLLHSDYMNMTPRRPGPTRKHYQPYAPPRDFAAYRSRVKFSRSADAPAYQQGQNQLYNELNLGRREEYDVLDKRRGRDPEMGGKPRRKNPQEGLYNELQKDKMAEAYSEIGMKGERRRGKGHDGLYQGLSTATKDTYDALHMQALPPR
B2: 181 M13 (antibody)
chain: QGCTYPPRFHMHWLCGSSGGSGGSGGSGGGPLGLAGGSSGQVQLVESGGGVVQPGRSLRLSCAASGFTFSSYGMHWVRQAPGKGLEWVAVIWDDGSNKYYVDSVKGRFTISRDNSKNTLYLQMNSLRAEDTAVYYCARDDYYGSGSFNSYYGTDVWGQGTTVTVSSGGGGSGGGGSGGGGSEIVLTQSPATLSLSPGERATLSCRASQSVSIYLAWYQQKPGQAPRLLIYDASNRATGIPARFSGSGSGTDFTLTISSLEPEDFAVYYCQQRSNWPPFTFGPGTKVDIKSAAAFVPVFLPAKPTTTPAPRPPTPAPTIASQPLSLRPEACRPAAGGAVHTRGLDFACDIYIWAPLAGTCGVLLLSLVITLYCNHRNRSKRSRLLHSDYMNMTPRRPGPTRKHYQPYAPPRDFAAYRSRVKFSRSADAPAYQQGQNQLYNELNLGRREEYDVLDKRRGRDPEMGGKPRRKNPQEGLYNELQKDKMAEAYSEIGMKGERRRGKGHDGLYQGLSTATKDTYDALHMQALPPR
B3: 181 M12 (antibody)
chain: B2 chain with Y5M, P7V, R8H, F9T, H10Y, M11S, H12Q
B4: 181 M11 (antibody)
chain: B2 chain with Y5M, P7S, R8H, F9A, H10V, M11A, H12S, W13F
B5: 181 M8 (antibody)
chain: B2 chain with C3W, T4C, Y5T, P6I, R8S, F9S, H10M, M11S, H12I, W13R
B6: 181 M4 (antibody)
chain: B2 chain with Y5F, P7N, R8T, F9T, H10M, M11Q, H12R, W13T, L14F
B7: 181 M3 (antibody)
chain: B2 chain with Y5M, R8S, F9P, H10R, M11S, H12K, W13V, L14I
B8: 181 M14 (antibody)
chain: B2 chain with Y5H, P6V, P7A, R8Q, F9W, H10A, M11I, H12K, W13A, L14F
B9: 181 M9 (antibody)
chain: QGCHIGKRPVPCLWIGSSGGSGGSGGSGGGPLGLAGGSSGQVQLVESGGGVVQPGRSLRLSCAASGFTFSSYGMHWVRQAPGKGLEWVAVIWDDGSNKYYVDSVKGRFTISRDNSKNTLYLQMNSLRAEDTAVYYCARDDYYGSGSFNSYYGTDVWGQGTTVTVSSGGGGSGGGGSGGGGSEIVLTQSPATLSLSPGERATLSCRASQSVSIYLAWYQQKPGQAPRLLIYDASNRATGIPARFSGSGSGTDFTLTISSLEPEDFAVYYCQQRSNWPPFTFGPGTKVDISAAAFVPVFLPAKPTTTPAPRPPTPAPTIASQPLSLRPEACRPAAGGAVHTRGLDFACDIYIWAPLAGTCGVLLLSLVITLYCNHRNRSKRSRLLHSDYMNMTPRRPGPTRKHYQPYAPPRDFAAYRSRVKFSRSADAPAYQQGQNQLYNELNLGRREEYDVLDKRRGRDPEMGGKPRRKNPQEGLYNELQKDKMAEAYSEIGMKGERRRGKGHDGLYQGLSTATKDTYDALHMQALPPR
B10: 181 M6 (antibody)
chain: B2 chain with C3V, T4C, Y5T, P6Y, R8P, F9A, M11R, H12T, W13R, L14F
B11: 181 M5 (antibody)
chain: B2 chain with P7S, R8W, F9V, H10A, M11Y, H12I, W13R, L14F
B12: 181 M7 (antibody)
chain: B2 chain with Y5M, P7Y, R8H, F9I, M11S, H12I, W13G

Target: T1, PTK7 on PTK7 positive cell line SaOS-2 …
Test: FACS binding SaOS-2

| Binder | EC50 [nM] |
| --- | --- |
| B1 | 1350 |
| B2 | 40.9 |
| B3 | 93.8 |
| B4 | 222 |
| B5 | 101 |
| B6 | 16.7 |
| B7 | 225 |
| B8 | 68.8 |
| B9 | 141 |
| B10 | 30.5 |
| B11 | 29.9 |
| B12 | 118 |

Target: T1, PTK7 on PTK7 positive cell line SaOS-2 …
Test: FACS binding SaOS-2; -MMP14

| Binder | EC50 [nM] |
| --- | --- |
| B1 | 434 |
| B2 | 58.6 |
| B5 | 96.9 |
| B6 | 20.8 |
| B7 | 406 |

Target: T1, PTK7 on PTK7 positive cell line SaOS-2 …
Test: FACS binding SaOS-2; +MMP14

| Binder | EC50 [nM] |
| --- | --- |
| B1 | 0.49 |
| B2 | 0.38 |
| B5 | 0.8 |
| B6 | 0.41 |
| B7 | 0.95 |
